Results published in US20240358767A1, “STEM CELL DIFFERENTIATION AND CHEMICAL COMPOUNDS” (VERTEX PHARMACEUTICALS INCORPORATED, priority 2021, published 2024).
“And” between values parts separate entries of the source, which are not always exact repeats. Equal entries are not always repeated.

Assays:
Assay type in all cases: cell-based
human stem cells [1] = assay: Version A differentiation, flow cytometry of Nkx6.1 and Isl1 on day 7 of Stage 6 (S6d7); details: for S6d7 Nkx6.1 + /Isl1+: day 7 of Stage 6
Description: (§1) An exemplary base differentiation protocol, Version A, according to the present disclosure, was used for differentiating human stem cells into mature β cells capable of releasing insulin in response to glucose challenge in vitro.
(§2) Version A protocol is a 6-stage stepwise protocol. With Version A protocol, stem cells were treated with reagents in a manner similar to the Version A described in Example 1 of U.S. Patent Publication No. US20220090020A1, which is incorporated by reference herein in its entirety. In some experiments, Version A was modified such that 100 ng/mL Activin A at Stage 1 was replaced with a different concentration of Activin A as described below.
(§3) In one experiment, differentiation of the stem cells was initiated in spinner flasks using Version A protocol, and three different concentrations of Activin A (“AA”), 100 ng/mL (100%), 10 ng/mL (10%), and 5 ng/mL (5%), applied throughout the three days of Stage 1 were tested, while the remaining differentiation steps were kept the same. On QC days, e.g., upon completion of Stage 1 (“S1C”), completion of Stage 3 (“S3C”), or completion of Stage 5 (“S5C”), the cells were examined for their morphology and cell constituents. Specifically, 5 mL of cell cluster suspension solution were taken from the spinner flask, with 1 mL suspension aliquoted into a 24 well plate. Pictures of the cell clusters in the 24-well plate were taken under brightfield microscope. The cell clusters in the remaining 4 mL suspension were dispersed with TrypLE Express (Life Technologies; 12,604,013) at 37° C. for 20 min, fixed with 4% PFA for 20 mins at 4° C., blocked for 1 hour in FACS buffer (5% Donkey Serum and 0.05% Triton-100 in PBS) at room temperature, and stained with various antibodies against cell markers. Stained cells were then measured using an Accuri 6 flow cytometer (BD Biosciences) and analyzed using FlowJo software.
(§4) In one experiment, six different conditions for Stage 1 differentiation were tested: 100% Activin A, 10% Activin A, 10% Activin A plus GSK-690693, 10% Activin A plus BYL719, 10% Activin A plus GSK-690693 and BYL719, or 100% Activin A plus GSK-690693 and BYL719. Characterization of cell morphology and cell constituents were conducted similarly as described in EXAMPLE 1. FIGS. 2A-5E and Table 4 summarize the characterizations of the cells obtained under the six differentiation conditions at different stages.
In another experiment, the effects of the aforementioned six different conditions for Stage 1 differentiation on Stage 6 differentiation were tested under two Stage 6 medium regimens: regimen 1 (Table 5) and regimen 2 (Table 6).

human stem cells [2] = assay: Version A differentiation, flow cytometry of Pdx1, Cdx2 and Sox2 at completion of Stage 3 (S3C); details: for S3C Pdx1: Runs 3-5, listed as AA
Description: as §1, §2, §3
(§5) In one experiment, four different conditions for Stage 1 differentiation were tested: 100% Activin A, 10% Activin A, 10% Activin A plus GSK-690693 (“GSK”), or 10% Activin A plus BYL719 (“BYL”). Characterization of cell morphology and cell constituents were conducted similarly as described in EXAMPLE 1. The experiment was repeated for four times. Table 3 summarizes the quantification of flow cytometry analysis results at S1C, S3C, and S5C, and total viable cell yield at S5C for the four runs. In all the four runs, 0.1 μM […] or 0.04 μM BYL719 was applied for 3 days of Stage 1, except that in the last two runs, Run 4 and Run 5, 0.04 μM of BYL719 was applied for only 2 days (days S1d1 and S1d2).
as §4

human stem cells [3] = assay: Version A differentiation, flow cytometry of Nkx6.1 and Isl1 at completion of Stage 5 (S5C)
Description: as §1, §2, §3, §5, §4

human stem cells [4] = assay: Stage 1 differentiation of stem cells (Version A protocol), flow cytometry of Oct4 and Sox17 at completion of Stage 1 (S1C)
Description: as §1, §2, §3
In another experiment, a dose-response test was conducted to examine the effects of different concentrations of Activin A at Stage 1 on stem cell differentiation. Five different concentrations of Activin A were tested: 100 ng/mL (100%), 20 ng/mL (20%), 10 ng/mL (10%), 5 ng/mL (5%), and 0 ng/mL (0%).
as §5, §4

human stem cells [5] = assay: Cell cluster morphology under brightfield microscope
Description: as §3

human stem cells [6] = assay: Total viable cell yield at S5C; details: 10% AA (10 ng/mL Activin A) at Stage 1, Runs 4-5, listed as AA
Description: as §1, §2, §5

[7] = 10% AA (10 ng/mL Activin A) at Stage 1
[8] = 100% AA (100 ng/mL Activin A) at Stage 1
[9] = Stage 6 Regimen 1, 10% AA (10 ng/mL Activin A) at Stage 1
[10] = Stage 6 Regimen 1, 100% AA (100 ng/mL Activin A) at Stage 1
[11] = Stage 6 Regimen 2, 10% AA (10 ng/mL Activin A) at Stage 1
[12] = Stage 6 Regimen 2, 100% AA (100 ng/mL Activin A) at Stage 1
[13] = 5% Activin A (5 ng/mL) throughout Stage 1
[14] = 10% Activin A (10 ng/mL) throughout Stage 1
[15] = 100% Activin A (100 ng/mL) throughout Stage 1
[16] = reduced concentrations of Activin A (10% or 5%) vs 100%

B1: Activin A: growth factor from the TGF-β superfamily; exemplary sequences SEQ ID NO: 1-15 in Table 1 (protein, UniProt P08476 311-426, looked up)
Inhibin beta A chain: GLECDGKVNICCKKQFFVSFKDIGWNDWIIAPSGYHANYCEGECPSHIAGTSGSSLSFHSTVINHYRMRGHSPFANLKSCCVPTKLRPMSMLYYDDGQNIIKKDIQNMIVEECGCS
modifications: Inhibin beta A chain
- S6d7 Nkx6.1 + /Isl1+ (human stem cells [1]; [7]): 35.4%
- S6d7 Nkx6.1 + /Isl1+ (human stem cells [1]; [8]): 37.3%
- Markers on S6d7 Isl1 + /Nkx6.1+ (human stem cells [1]; [9]): 35.4
- Markers on S6d7 Isl1 + /Nkx6.1− (human stem cells [1]; [9]): 5.34
- Markers on S6d7 Isl1 + /Nkx6.1+ (human stem cells [1]; [10]): 37.3
- Markers on S6d7 Isl1 + /Nkx6.1− (human stem cells [1]; [10]): 7.38
- Markers on S6d7 Isl1 + /Nkx6.1+ (human stem cells [1]; [11]): 34.6
- Markers on S6d7 Isl1 + /Nkx6.1− (human stem cells [1]; [11]): 5.42
- Markers on S6d7 Isl1 + /Nkx6.1+ (human stem cells [1]; [12]): 37.8
- Markers on S6d7 Isl1 + /Nkx6.1− (human stem cells [1]; [12]): 7.16
- S3c − Cdx2+/Pdx1+ (human stem cells [2]; [13]): 27.0%
- S3c− Sox2+/Pdx1+ (human stem cells [2]; [13]): 9.76%
- S3c − Cdx2+/Pdx1− (human stem cells [2]; 5% Activin A (5 ng/mL) throughout Stage 1, first line with this head (r7)): 6.22%
- S3c − Cdx2+/Pdx1− (human stem cells [2]; 5% Activin A (5 ng/mL) throughout Stage 1, second line with this head (r9)): 3.63%
- S3C Pdx1 + /Cdx2+ (human stem cells [2]; [7]): 32.7%
- S3C Pdx1 + /Sox2+ (human stem cells [2]; [7]): 3.89%
- S3C Pdx1 (human stem cells [2]; [7]): 56.9 and 93.3 and 75.8
- S3c − Cdx2+/Pdx1+ (human stem cells [2]; [14]): 32.7%
- S3c− Sox2+/Pdx1+ (human stem cells [2]; [14]): 3.89%
- S3c − Cdx2+/Pdx1− (human stem cells [2]; 10% Activin A (10 ng/mL) throughout Stage 1, first line with this head (r7)): 1.28%
- S3c − Cdx2+/Pdx1− (human stem cells [2]; 10% Activin A (10 ng/mL) throughout Stage 1, second line with this head (r9)): 1.90%
- S3C Pdx1 + /Cdx2+ (human stem cells [2]; [8]): 3.21%
- S3C Pdx1 + /Sox2+ (human stem cells [2]; [8]): 38.8%
- S3C Pdx1 (human stem cells [2]; [8]): 72.7 and 95.3 and 84.61
- S3c − Cdx2+/Pdx1+ (human stem cells [2]; [15]): 3.21%
- S3c− Sox2+/Pdx1+ (human stem cells [2]; [15]): 38.8%
- S3c − Cdx2+/Pdx1− (human stem cells [2]; 100% Activin A (100 ng/mL) throughout Stage 1, first line with this head (r7)): 0.061%
- S3c − Cdx2+/Pdx1− (human stem cells [2]; 100% Activin A (100 ng/mL) throughout Stage 1, second line with this head (r9)): 1.29%
- cells expressing Cdx2 at S3C (human stem cells [2]; [16]): more
- cells expressing Sox2 at S3C (human stem cells [2]; [16]): fewer
- percentage of Nkx6.1-positive cells at S5C (human stem cells [3]; 5% Activin A): reduced percentage
- S5c − Nkx6.1+/Isl1+ (human stem cells [3]; [13]): 25.9%
- S5c − Nkx6.1+/Isl1− (human stem cells [3]; [13]): 25.3%
- S5C Nkx6.1+/Isl1+ (human stem cells [3]; [7]): 32.9%
- S5C Nkx6.1+/Isl1+ (human stem cells [3]; 10% AA (10 ng/mL Activin A) at Stage 1, Runs 3-5, listed as AA): 25.2 and 38.7 and 32.9
- S5c − Nkx6.1+/Isl1+ (human stem cells [3]; [14]): 32.9%
- S5c − Nkx6.1+/Isl1− (human stem cells [3]; [14]): 49.5%
- S5c − Nkx6.1+/Isl1− (human stem cells [3]; 10% Activin A (10 ng/mL) throughout Stage 1, listed as AA): 49.5%
- S5C Nkx6.1+/Isl1+ (human stem cells [3]; [8]): 32.6%
- S5C Nkx6.1+/Isl1+ (human stem cells [3]; 100% AA (100 ng/mL Activin A) at Stage 1, Runs 3-5, listed as AA): 31.5 and 36.6 and 32.6
- S5c − Nkx6.1+/Isl1+ (human stem cells [3]; [15]): 32.6%
- S5c − Nkx6.1+/Isl1− (human stem cells [3]; [15]): 41.1%
- S5c − Nkx6.1+/Isl1− (human stem cells [3]; 100% Activin A (100 ng/mL) throughout Stage 1, listed as AA): 41.1%
- S1c − Oct4−/Sox17+ (human stem cells [4]; [13]): 76.4%
- S1C Sox17 + /Oct4+ (human stem cells [4]; [7]): 3.29%
- S1C Sox17+/Oct4− (human stem cells [4]; [7]): 87.1%
- S1C Sox17+/Oct4− (human stem cells [4]; 10% AA (10 ng/mL Activin A) at Stage 1, Runs 2-5, listed as AA): 61.6 and 80.5 and 87.1 and 73.8
- S1c − Oct4−/Sox17+ (human stem cells [4]; [14]): 87.1%
- S1C Sox17 + /Oct4+ (human stem cells [4]; [8]): 3.41%
- S1C Sox17+/Oct4− (human stem cells [4]; [8]): 79.1%
- S1C Sox17+/Oct4− (human stem cells [4]; 100% AA (100 ng/mL Activin A) at Stage 1, Runs 2-5, listed as AA): 78.2 and 88.2 and 79.1 and 84.5
- S1c − Oct4−/Sox17+ (human stem cells [4]; [15]): 79.1%
- percentage of Oct4-negative, Sox17-positive cells at S1C (human stem cells [4]; among 100%, 10% and 5% Activin A): not significant difference
- percentage of Sox17−/Oct4+ cells at S1C (human stem cells [4]; dose-response test, 100% Activin A (100 ng/mL) at Stage 1): under 1%
- percentage of Sox17−/Oct4+ cells at S1C (human stem cells [4]; dose-response test, Activin A reduced from 100% to 20%, 10%, or 5%): did not change significantly
- percentage of double negative cells (Sox17-negative, Oct4-negative) at S1C (human stem cells [4]; dose-response test, reduced Activin A (20%, 10%, and 5%) vs 100%): increase
- cell cluster morphology at completion of Stage 5 (human stem cells [5]; 5% Activin A): altered morphology
- cell cluster morphology at completion of Stage 3 (human stem cells [5]; 10% or 5% Activin A at Stage 1 vs 100% Activin A): altered morphology
- cell cluster morphology at completion of Stage 1 (human stem cells [5]; 10% or 5% Activin A vs 100% Activin A, irregular shapes and rough edge): altered morphology
- St5C yield (human stem cells [6]): 2.56e+06 mL⁻¹ and 4.1968e+06 mL⁻¹
